B1: Flag-Rad23 (yeast Rad23 with an amino-terminal Flag epitope) (other, yeast (Saccharomyces cerevisiae), UniProt P32628 1-398, looked up, not shown: small tags and cut ends)
chain: MVSLTFKNFKKEKVPLDLEPSNTILETKTKLAQSISCEESQIKLIYSGKVLQDSKTVSECGLKDGDQVVFMVSQKKSTKTKVTEPPIAPESATTPGRENSTEASPSTDASAAPAATAPEGSQPQEEQTATTERTESASTPGFVVGTERNETIERIMEMGYQREEVERALRAAFNNPDRAVEYLLMGIPENLRQPEPQQQTAAAAEQPSTAATTAEQPAEDDLFAQAAQGGNASSGALGTTGGATDAAQGGPPGSIGLTVEDLLSLRQVVSGNPEALAPLLENISARYPQLREHIMANPEVFVSMLLEAVGDNMQDVMEGADDMVEGEDIEVTGEAAAAGLGQGEGEGSFQVDYTPEDDQAISRLCELGFERDLVIQVYFACDKNEEAAANILFSDHAD
B2: Flag-rad23^uba1uba2 (yeast Rad23 with mutations in both UBA domains, amino-terminal Flag epitope) (other, yeast (Saccharomyces cerevisiae), UniProt P32628 1-398, looked up, not shown: small tags and cut ends)
chain: MVSLTFKNFKKEKVPLDLEPSNTILETKTKLAQSISCEESQIKLIYSGKVLQDSKTVSECGLKDGDQVVFMVSQKKSTKTKVTEPPIAPESATTPGRENSTEASPSTDASAAPAATAPEGSQPQEEQTATTERTESASTPGFVVGTERNETIERIMEMGYQREEVERALRAAFNNPDRAVEYALMGIPENLRQPEPQQQTAAAAEQPSTAATTAEQPAEDDLFAQAAQGGNASSGALGTTGGATDAAQGGPPGSIGLTVEDLLSLRQVVSGNPEALAPLLENISARYPQLREHIMANPEVFVSMLLEAVGDNMQDVMEGADDMVEGEDIEVTGEAAAAGLGQGEGEGSFQVDYTPEDDQAISRLCELGFERDLVIQVYFACDKNEEAAANIAFSDHAD

Target: Ub-Pro-βgal (proteolytic test substrate, ubiquitinated in yeast cells) (UniProt P00722 1-1024 = β-galactosidase, ubiquitinated in the cells (multi-Ub chains; sites not stated))
Experiment: cell-based or functional assay

Ub-Pro-βgal (proteolytic test substrate, ubiquitinated in yeast cells), sequence (P00722 whole entry): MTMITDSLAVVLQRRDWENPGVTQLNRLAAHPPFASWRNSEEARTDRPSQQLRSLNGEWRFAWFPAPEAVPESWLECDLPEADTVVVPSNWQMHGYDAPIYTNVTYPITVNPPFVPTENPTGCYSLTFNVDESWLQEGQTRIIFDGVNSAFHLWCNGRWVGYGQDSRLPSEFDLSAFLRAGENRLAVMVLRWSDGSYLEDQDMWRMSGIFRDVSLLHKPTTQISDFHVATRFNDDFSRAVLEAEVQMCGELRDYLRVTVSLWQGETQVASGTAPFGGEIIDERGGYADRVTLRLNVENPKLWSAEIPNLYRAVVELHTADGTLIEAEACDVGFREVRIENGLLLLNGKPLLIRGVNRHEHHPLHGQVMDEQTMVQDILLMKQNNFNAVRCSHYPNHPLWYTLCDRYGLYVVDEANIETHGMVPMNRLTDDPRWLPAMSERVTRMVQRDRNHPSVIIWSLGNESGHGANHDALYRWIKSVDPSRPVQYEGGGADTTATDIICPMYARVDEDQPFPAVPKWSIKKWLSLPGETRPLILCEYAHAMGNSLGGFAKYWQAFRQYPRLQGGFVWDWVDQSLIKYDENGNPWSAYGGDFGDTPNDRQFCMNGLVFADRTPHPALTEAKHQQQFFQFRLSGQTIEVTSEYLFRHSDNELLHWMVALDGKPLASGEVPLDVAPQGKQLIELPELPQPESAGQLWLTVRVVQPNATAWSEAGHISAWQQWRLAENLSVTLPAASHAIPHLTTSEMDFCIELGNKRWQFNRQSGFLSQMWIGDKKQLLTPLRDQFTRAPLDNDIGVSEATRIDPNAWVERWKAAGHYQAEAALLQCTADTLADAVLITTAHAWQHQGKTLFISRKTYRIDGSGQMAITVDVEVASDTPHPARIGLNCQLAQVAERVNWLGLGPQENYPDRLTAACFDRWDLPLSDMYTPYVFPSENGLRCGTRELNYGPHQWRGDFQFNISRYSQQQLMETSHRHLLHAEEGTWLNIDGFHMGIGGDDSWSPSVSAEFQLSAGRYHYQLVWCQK

Binder | t1/2 of Ub-Pro-βgal by pulse-chase on overexpression of Flag-Rad23 in yeast [min] | t1/2 of Ub-Pro-βgal by pulse-chase on expression of Flag-rad23^uba1uba2 in yeast [min]
B1 | > 100 | –
B2 | – | ~10

Reference: patent US20050287608A1 (UNIVERSITY OF MEDICINE AND DENTISTRY, published 2005)
